Laboratory results taken from patent US20120121559A1 (VALTED, published 2012).

What was measured:
[1] = molecular target: T1, PARIS (parkin interacting substrate) (human, UniProt Q6NUN9 1-644, limits assumed); experiment: immunoprecipitation of endogenous Iduna from MCF7 lysate, immunoblot
T1 construct: Negative control of the co-immunoprecipitation

[2] = molecular target: PARsylated PARP1 (recombinant PARP1 automodified in vitro), P09874
[3] = molecular target: recombinant PARP1, non-PARsylated, P09874
[4] = molecular target: PARsylated PARP1, endogenous protein of MCF7 cells, P09874
PARsylated PARP1, endogenous protein of MCF7 cells, P09874, sequence (P09874 whole entry, looked up): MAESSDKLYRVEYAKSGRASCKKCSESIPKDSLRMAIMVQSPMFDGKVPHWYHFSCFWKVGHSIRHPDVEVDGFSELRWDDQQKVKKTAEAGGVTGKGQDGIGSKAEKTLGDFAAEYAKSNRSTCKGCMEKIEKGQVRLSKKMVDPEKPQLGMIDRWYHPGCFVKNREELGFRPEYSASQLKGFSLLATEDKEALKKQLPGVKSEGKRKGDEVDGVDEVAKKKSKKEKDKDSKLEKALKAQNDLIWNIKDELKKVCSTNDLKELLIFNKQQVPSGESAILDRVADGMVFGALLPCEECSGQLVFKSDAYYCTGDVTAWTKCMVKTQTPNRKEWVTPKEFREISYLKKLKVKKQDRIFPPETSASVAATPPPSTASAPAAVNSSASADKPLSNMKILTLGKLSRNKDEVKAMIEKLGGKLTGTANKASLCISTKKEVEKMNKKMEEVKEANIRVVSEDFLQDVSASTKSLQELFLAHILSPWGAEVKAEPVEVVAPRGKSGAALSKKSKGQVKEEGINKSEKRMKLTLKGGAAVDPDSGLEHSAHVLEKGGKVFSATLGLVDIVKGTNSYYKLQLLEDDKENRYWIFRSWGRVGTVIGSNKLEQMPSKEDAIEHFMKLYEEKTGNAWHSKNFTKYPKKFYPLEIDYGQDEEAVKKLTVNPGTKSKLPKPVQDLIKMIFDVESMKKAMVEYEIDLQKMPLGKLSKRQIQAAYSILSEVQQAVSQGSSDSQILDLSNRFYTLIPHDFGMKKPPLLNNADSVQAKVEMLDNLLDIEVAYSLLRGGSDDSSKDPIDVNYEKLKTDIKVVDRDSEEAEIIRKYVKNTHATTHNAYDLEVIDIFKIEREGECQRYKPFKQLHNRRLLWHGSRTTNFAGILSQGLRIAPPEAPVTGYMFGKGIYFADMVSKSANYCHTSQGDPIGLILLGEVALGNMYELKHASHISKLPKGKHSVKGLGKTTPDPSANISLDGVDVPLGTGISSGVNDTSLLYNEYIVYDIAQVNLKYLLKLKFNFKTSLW

T1 sequence (Q6NUN9 whole entry): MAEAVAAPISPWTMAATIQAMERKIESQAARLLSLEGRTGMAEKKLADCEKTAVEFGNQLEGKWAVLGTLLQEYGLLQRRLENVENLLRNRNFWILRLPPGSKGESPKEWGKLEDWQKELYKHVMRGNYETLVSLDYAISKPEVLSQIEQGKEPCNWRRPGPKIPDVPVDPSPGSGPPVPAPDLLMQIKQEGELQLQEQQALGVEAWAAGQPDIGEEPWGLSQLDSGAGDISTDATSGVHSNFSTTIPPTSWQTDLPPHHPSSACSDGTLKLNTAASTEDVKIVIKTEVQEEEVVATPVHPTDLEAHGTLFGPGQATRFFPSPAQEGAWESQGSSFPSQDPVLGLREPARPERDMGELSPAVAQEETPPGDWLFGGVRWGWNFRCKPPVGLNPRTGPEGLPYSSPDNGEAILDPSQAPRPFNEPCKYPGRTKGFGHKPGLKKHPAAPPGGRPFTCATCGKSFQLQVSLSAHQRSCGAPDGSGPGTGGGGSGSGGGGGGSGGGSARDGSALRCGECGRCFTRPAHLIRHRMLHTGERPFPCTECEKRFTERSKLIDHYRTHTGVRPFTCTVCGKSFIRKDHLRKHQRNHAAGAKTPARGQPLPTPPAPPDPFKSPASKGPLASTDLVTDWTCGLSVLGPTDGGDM
PARsylated PARP1 (recombinant PARP1 automodified in vitro), P09874, sequence (P09874 whole entry, looked up): as the sequence (P09874 whole entry, looked up) above
recombinant PARP1, non-PARsylated, P09874, sequence (P09874 whole entry, looked up): as above

B1: human Iduna (RNF146) (enzyme)
chain: MAGCGEIDHSINMLPTNKKANESCSNTAPSLTVPECAICLQTCVHPVSLPCKHVFCYLCVKGASWLGKRCALCRQEIPEDFLDKPTLLSPEELKAASRENGEYAWYYEGRNGWWQYDERTSRELEDAFSKGKKNTEMLIAGFLYVADLENMVQYRRNEHGRRRKVKRDIIDIPKKGVAGLRLDCDANTVNLARESSADGADSVSAQSGASVQPLVSSVRPLTSVDGQLTSPATPSPDASTSLEDSFAHLQLSGDNTAERSHRGEGEEDHESPSSGRVPAPDTSIEETESDASSDSEDVSAVVAQHSLTQQRLLVSNANQTVPDRSDRSGTDRSVAGGGTVSVSVRSRRPDGQCTVIEV
notes: also called hIduna; endogenous Iduna (MCF7 cells)
Does B1 bind [1]?
Result: no binding

B2: GST-Iduna (protein)
chain: MEMAGCGEIDHSINMLPTNKKANESCSNTAPSLTVPECAICLQTCVHPVSLPCKHVFCYLCVKGASWLGKRCALCRQEIPEDFLDKPTLLSPEELKAASRGNGEYAWYYEGRNGWWQYDERTSRELEDAFSKGKKNTEMLIAGFLYVADLENMVQYRRNEHGRRRKIKRDIIDIPKKGVAGLRLDCDTNTVNLARESSADGADSGSAQTGASVQLAVPSSTRPLTSVDGQLTSPVTPSPDAGISLEDSFAHLQLSGDSIAERSHRGEGEEDHESPSSGRVPDTSVEETESDASSDSEDAPVVVAQHSLTQQRPLVPNGNQTVADQSDRSGTDRSVAGGGTMSVNVRSRRPDGQCTVIEV
With B2 as the binder, how does the “in vitro ubiquitination assay (E1, UBCH 5c, ubiquitin), immunoblot with antibodies to ubiquitin” value [2] read?
Its value is “Only PARsylated PARP1 is ubiquitinated by GST-Iduna”.

What about the “in vitro ubiquitination assay (E1, UBCH 5c, ubiquitin), immunoblot with antibodies to ubiquitin” value [3] of the same binder?
Its value is “Only PARsylated PARP1 is ubiquitinated by GST-Iduna (non-PARsylated PARP1 is not ubiquitinated)”.

B3: GFP-Iduna (EGFP-tagged Iduna) (protein)
chain: B2 chain
How did the “in vitro ubiquitination assay on anti-GFP immunoprecipitates, immunoblot with antibodies to PAR and ubiquitin” value [4] turn out when B3 was run?
The value was “only GFP-Iduna is capable of polyubiquitination of PARsylated PARP1”.
